Results published in publication PMC9044407 (Protein Science : A Publication of the Protein Society, 2022).
Where a chain is given by its changes, count along the chain named. Where two headings read alike, the source gives them in different places. One block for each binder: values may come before it.

Columns and labels:
[1] = biological target: T1, Suv3 (human, UniProt Q8IYB8 48-786); assay: fluorescence polarization
T1 sequence: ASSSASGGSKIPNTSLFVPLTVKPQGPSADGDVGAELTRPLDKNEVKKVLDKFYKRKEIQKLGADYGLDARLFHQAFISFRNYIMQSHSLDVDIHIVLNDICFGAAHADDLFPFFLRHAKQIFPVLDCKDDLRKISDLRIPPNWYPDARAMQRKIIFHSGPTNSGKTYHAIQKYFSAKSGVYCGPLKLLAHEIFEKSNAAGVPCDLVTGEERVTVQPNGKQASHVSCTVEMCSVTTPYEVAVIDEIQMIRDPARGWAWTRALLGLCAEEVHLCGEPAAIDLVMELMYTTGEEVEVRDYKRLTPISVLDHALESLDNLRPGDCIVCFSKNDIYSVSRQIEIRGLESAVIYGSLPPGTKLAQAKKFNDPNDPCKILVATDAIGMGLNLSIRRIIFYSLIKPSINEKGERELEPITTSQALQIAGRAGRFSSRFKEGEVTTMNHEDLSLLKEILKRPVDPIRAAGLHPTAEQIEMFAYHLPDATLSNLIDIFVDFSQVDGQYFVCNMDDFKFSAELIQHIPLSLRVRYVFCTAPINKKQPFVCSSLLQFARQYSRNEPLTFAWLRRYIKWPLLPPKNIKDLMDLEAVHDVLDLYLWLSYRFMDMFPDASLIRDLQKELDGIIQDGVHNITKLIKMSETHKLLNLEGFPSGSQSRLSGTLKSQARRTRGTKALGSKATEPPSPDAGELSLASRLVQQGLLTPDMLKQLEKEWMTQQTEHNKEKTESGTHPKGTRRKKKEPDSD

[2] = biological target: the molecule itself
[3] = biological target: T2, human Suv3 (residues 48–786), N-terminal His-tagged (human, UniProt Q8IYB8 48-786); assay: SEC
T2 sequence (looked up): T1 sequence

[4] = biological target: T1, Suv3; assay: fluorescence polarization; remark: listed apart in the source
[5] = biological target: T1, Suv3; assay: fluorescence polarization; remark: listed apart in the source
[6] = biological target: T3, Suv3ΔC (human, UniProt Q8IYB8 48-722, del723-786); assay: fluorescence polarization
T3 sequence: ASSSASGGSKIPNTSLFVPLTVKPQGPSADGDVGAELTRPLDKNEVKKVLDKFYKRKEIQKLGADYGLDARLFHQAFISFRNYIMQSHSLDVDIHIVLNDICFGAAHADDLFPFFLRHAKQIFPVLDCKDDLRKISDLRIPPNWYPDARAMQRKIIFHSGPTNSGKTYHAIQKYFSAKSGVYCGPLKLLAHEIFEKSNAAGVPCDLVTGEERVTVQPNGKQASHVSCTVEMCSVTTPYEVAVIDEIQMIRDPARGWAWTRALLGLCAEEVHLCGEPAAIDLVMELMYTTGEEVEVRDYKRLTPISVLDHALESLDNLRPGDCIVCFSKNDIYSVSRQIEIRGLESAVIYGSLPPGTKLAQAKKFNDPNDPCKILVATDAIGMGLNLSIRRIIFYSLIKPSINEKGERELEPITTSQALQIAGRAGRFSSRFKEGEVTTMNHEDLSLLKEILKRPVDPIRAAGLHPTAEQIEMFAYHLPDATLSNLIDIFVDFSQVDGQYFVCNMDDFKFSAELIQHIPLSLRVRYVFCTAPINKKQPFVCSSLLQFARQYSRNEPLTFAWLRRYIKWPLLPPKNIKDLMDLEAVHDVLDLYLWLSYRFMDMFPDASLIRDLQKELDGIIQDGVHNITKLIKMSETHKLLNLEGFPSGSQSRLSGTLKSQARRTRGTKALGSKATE

[7] = biological target: T1, Suv3; assay: fluorescence polarization; remark: listed apart in the source
[8] = biological target: T1, Suv3; assay: fluorescence polarization; remark: listed apart in the source
[9] = biological target: T1, Suv3; assay: fluorescence polarization; remark: listed apart in the source

B1: dsRNA 20-nt 3' overhang (dsRNA)
RNA 1: GGUGUGGUGGCAUACGUGCAGACGC
RNA 2: GCGUCUGCACGUAUGCCACCACACCAGGAGAGGAGAGGAGAGGAG
Kd [1]: ~18 nM

Binder: GGUGUGGUGGCAUACGUGCAGACGC (ssRNA) [ssRNA 25 nt]
Kd [1]: 53.1 ± 0.7 nM

Binder: GGTGTGGTGGCATACGTGCAGACGC (ssDNA) [ssDNA 25 nt]
Kd [1]: 44 ± 1.7 nM

B2: blunt-end dsDNA (dsDNA)
DNA 1: GGTGTGGTGGCATACGTGCAGACGC
DNA 2: GCGTCTGCACGTATGCCACCACACC
Kd [1]: 63.9 ± 1.5 nM

binding result [3]: binds
B3: human PNPase (residues 46–783), C-terminal His-tagged (enzyme, UniProt Q8TCS8 46-783, looked up)
chain: AVAVDLGNRKLEISSGKLARFADGSAVVQSGDTAVMVTAVSKTKPSPSQFMPLVVDYRQKAAAAGRIPTNYLRREIGTSDKEILTSRIIDRSIRPLFPAGYFYDTQVLCNLLAVDGVNEPDVLAINGASVALSLSDIPWNGPVGAVRIGIIDGEYVVNPTRKEMSSSTLNLVVAGAPKSQIVMLEASAENILQQDFCHAIKVGVKYTQQIIQGIQQLVKETGVTKRTPQKLFTPSPEIVKYTHKLAMERLYAVFTDYEHDKVSRDEAVNKIRLDTEEQLKEKFPEADPYEIIESFNVVAKEVFRSIVLNEYKRCDGRDLTSLRNVSCEVDMFKTLHGSALFQRGQTQVLCTVTFDSLESGIKSDQVITAINGIKDKNFMLHYEFPPYATNEIGKVTGLNRRELGHGALAEKALYPVIPRDFPFTIRVTSEVLESNGSSSMASACGGSLALMDSGVPISSAVAGVAIGLVTKTDPEKGEIEDYRLLTDILGIEDYNGDMDFKIAGTNKGITALQADIKLPGIPIKIVMEAIQQASVAKKEILQIMNKTISKPRASRKENGPVVETVQVPLSKRAKFVGPGGYNLKKLQAETGVTISQVDEETFSVFAPTPSAMHEARDFITEICKDDQEQQLEFGAVYTATITEIRDTGVMVKLYPNMTAVLLHNTQLDQRKIKHPTALGLEVGQEIQVKYFGRDPADGRMRLSRKVLQSPATTVVRTLNDRSSIVMGEPISQSSSNSQ
stoichiometry N [2]: 3

B4: dsRNA 15-nt 3' overhang (dsRNA)
RNA 1: GGUGUGGUGGCAUACGUGCAGACGC
RNA 2: GCGUCUGCACGUAUGCCACCACACCAGGAGAGGAGAGGAG
Kd [1]: ~18 nM

B5: dsDNA 10-nt 5' overhang (dsDNA)
DNA 1: GGTGTGGTGGCATACGTGCAGACGC
DNA 2: GAGGAGAGGAGCGTCTGCACGTATGCCACCACACC
binding signal [4]: 8 fold lower affinity than 3' overhang dsDNA

B6: dsRNA 10-nt 5' overhang (dsRNA)
RNA 1: GGUGUGGUGGCAUACGUGCAGACGC
RNA 2: B5 DNA 2 with T14U, T16U, T22U, T24U
binding result [5]: no binding

B7: DNA-RNA hybrid 10-nt 5' overhang (DNA:RNA)
DNA: GGTGTGGTGGCATACGTGCAGACGC
RNA: B5 DNA 2 with T14U, T16U, T22U, T24U
binding signal [4]: 23 fold lower affinity than 3' overhang DNA-RNA hybrid

B8: blunt-end DNA-RNA hybrid (DNA:RNA)
DNA: GGTGTGGTGGCATACGTGCAGACGC
RNA: GCGUCUGCACGUAUGCCACCACACC
Kd [1]: 103 ± 5.9 nM

B9: blunt-end dsRNA (dsRNA)
RNA 1: GGUGUGGUGGCAUACGUGCAGACGC
RNA 2: GCGUCUGCACGUAUGCCACCACACC
binding result [5]: no binding

B10: dsRNA 5-nt 3' overhang (dsRNA)
RNA 1: GGUGUGGUGGCAUACGUGCAGACGC
RNA 2: GCGUCUGCACGUAUGCCACCACACCAGGAG
Kd [1]: ~65 nM

B11: dsDNA 10-nt 3' overhang (dsDNA)
DNA 1: GGTGTGGTGGCATACGTGCAGACGC
DNA 2: GCGTCTGCACGTATGCCACCACACCAGGAGAGGAG
Kd [6]: 99 ± 8.6 nM | Kd [1]: 11.5 ± 0.2 nM

B12: DNA-RNA hybrid 10-nt 3' overhang (DNA:RNA)
DNA: GGTGTGGTGGCATACGTGCAGACGC
RNA: B11 DNA 2 with T4U, T6U, T12U, T14U
Kd [6]: 110 ± 9.5 nM | Kd [1]: 13.1 ± 0.4 nM

B13: dsRNA 10-nt 3' overhang (dsRNA)
RNA 1: GGUGUGGUGGCAUACGUGCAGACGC
RNA 2: B11 DNA 2 with T4U, T6U, T12U, T14U
Kd [7]: 62.2 ± 2.2 nM | Kd [1]: 18.7 ± 0.7 nM | Kd [8]: 19.3 ± 0.5 nM | Kd [9]: 32.6 ± 0.6 nM
